Measured values as given in the supplement of paper PMC12764529.
± gives the half width of the 95% confidence interval.

Key:
[1] = folding stability dG unfold from chymotrypsin proteolysis; higher = more stable
Procedure: (§1)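 Folding stability of de novo designed mini-proteins (<80 aa, no Cys; designed by TrROS, TrMRF, ProteinMPNN and the joint model) was measured by cDNA display proteolysis with trypsin and chymotrypsin. Each protease was used at 11 concentrations in a threefold dilution series plus a no-protease condition. K50 was inferred by Bayesian fitting of sequencing counts, and dG unfold was derived against a sequence-predicted unfolded-state K50 (Tsuboyama et al. method). Sequences shown include variable-length N-terminal GS-type padding (SAGGSAGG...) inside a display construct carrying a PA tag. Rows were kept only if the AF2 dimer inter-PAE was >15, to exclude likely homo-oligomers.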

[2] = folding stability dG unfold (combined trypsin and chymotrypsin); higher = more stable
Procedure: as §1

Sequence | folding stability dG unfold [1] [kcal/mol] | folding stability dG unfold [2] [kcal/mol]
SAGGEEPKRKTVEVPAGQPISELLDALKQYDEVQIRMGNGEEHEIPPNDPPDLEDLPLPPGNTFEIEVSAGG [r13_399_TrROS] | -0.126 ± 0.12 | < -1
SAGGFKIERERDPDNGIRKIEFRFPDNGYRVKATINPDNDKIHIWGPNPAIREALPELGITNVEVEPWSAGG [r13_511_TrROS] | -0.811 ± 0.78 | < -1
SAGGGAMLVGETTTSKWIEKTIRNENGEVETKKVKVTTKPVTYKLPDGTLATETKVTIIYPDGSTKEESAGG [r13_113_JUSTAS] | 0.103 ± 0.21 | -0.181 ± 0.31
SAGGGMEEVAKKLGVPEDARLEVLKVERYYYTREVRDPLFEEGKPVGEKIIPRPYYSEKVDYKLFDKPSAGG [r13_482_JUSTAS] | -0.288 ± 0.32 | < -1
SAGGGMKTSKVSTSTTTTTVPGTGAPVTVEVTSTTTTFGPNGPAVVTTTSLTYDEAGTPTTTTTTTLSAGGS [r16_200_JUSTAS] | 0.46 ± 0.11 | -0.133 ± 0.13
SAGGGSMVEKTISTTDPKYVKILKKLEEAPEDEVVTIKEPNKDIEVLSFDKVDDNYKLLMKLPPSILSAGGS [r16_404_JUSTAS] | -0.454 ± 0.38 | -0.773 ± 0.46
SAGGGSMVIPVSPEEKEAALKLLEALPSKDVKVTVTDPATGTTTTLTPEEAKKLIEATDTPLVLTLSSAGGS [r16_263_JUSTAS] | 2.92 ± 0.08 | 3.42 ± 0.16
SAGGISVEIYPPNGKKVELEGDTIPELMDKFPPGGNYVIKIEQPHVNPGNGKKQPMEMEFRVPPDDFSAGGS [r16_806_TrROS] | -0.202 ± 0.23 | -0.697 ± 0.33
SAGGKARITRIEAEPDPLRVEVEVELPDGRKVRAVAVVPPGEGGVARVRTAVDFGEGVVPAADIEIPPSAGG [r13_728_TrMRF] | 0.704 ± 0.016 | 0.236 ± 0.052
SAGGKKVIIPFKSPEQVKDWLENAPPGHDKVEIFSPETGYMAEFEVDPKENKIKEIKWERFDPDDGMFSAGG [r13_945_TrROS] | 0.0373 ± 0.28 | -0.372 ± 0.46
SAGGMGVRVEEKVLATSESSTPDGTPVTFTETETKITLPPGTVVTVKKLLETGGGGRKVLEETTSPLASAGG [r13_898_JUSTAS] | 0.092 ± 0.039 | -0.295 ± 0.14
SAGGMITLEEPELDPSRPVTRVKVLTEIPAPGGVPVVVETTYTDTRAPGDPSVTVVTSTTTVVPGAAGSAGG [r13_131_JUSTAS] | -0.0242 ± 0.055 | -0.834 ± 0.27
SAGGMKIEKTPVKIEKEGEDTVIEYKETEYLPDGTVKEYEGILRIPKNTGKITTLEKKLLSTEPILGSAGGS [r16_729_JUSTAS] | -0.377 ± 0.3 | < -1
SAGGMLITEEDLAALLAAVPPERPDAVVTLTVGRLQRILPGSTGENEPIPSSVEPSVVTLPVTVPPASAGGS [r16_708_JUSTAS] | -0.833 ± 0.24 | < -1
SAGGMLSRESTDPGPGRRTLTREEPLPDGTVPVTVTTESPDPSVTTVETRLVFPGPAVETPTRTAAPSAGGS [r16_684_JUSTAS] | 0.78 ± 0.038 | 0.281 ± 0.052
SAGGMTIVSSGPSIEQALQEAAEAGGDATVIYKEPESNTIITLDVKYDPAPRTITVLSETETPVPPLLSAGG [r13_309_JUSTAS] | 0.758 ± 0.079 | 0.17 ± 0.1
SAGGMTLDQLKENIKSVEVYPHPDGGYRMRVQIPQPNPDGKPKPREFNIPMPPNDPNMSADNVIDQILSAGG [r13_319_TrROS] | -0.353 ± 0.27 | < -1
SAGGMTTTTTLEVAPDTPYEAALAEIEAALAAAAAGRPVASSPVAARPGGARTLPLVVTDGAVTALGSAGGS [r8_7_JUSTAS] | 0.954 ± 0.041 | 0.35 ± 0.07
SAGGMTTTVTVTEDPATGTLTVPITIPRLDAEGNPTTEVLTVTLPASPEAEAAIAALAAALGIPAAASAGGS [r8_381_JUSTAS] | 0.943 ± 0.067 | 0.369 ± 0.1
SAGGMTVTLRLTDPAGEEYTVTVTKTEGKSTATVYGPGGELVETRDFSSAEEAIAYLRAQGYTVEVIESAGG [r13_315_JUSTAS] | 5.323 ± 0.049 | 5.34 ± 0.081
